Results: patent US20200062863A1 (CSL BEHRING, published 2020)

Assays:
Test in all cases: Western blot of culture supernatant (non-reducing SDS-PAGE) probed with 3F7 mAb, anti-human IgG-FITC
[1] = biological target: T1, A589D
T1 construct: also called Mu-FXII A589D mutant with C-terminal 8xHis-tag; mutant n)
T1 single chain: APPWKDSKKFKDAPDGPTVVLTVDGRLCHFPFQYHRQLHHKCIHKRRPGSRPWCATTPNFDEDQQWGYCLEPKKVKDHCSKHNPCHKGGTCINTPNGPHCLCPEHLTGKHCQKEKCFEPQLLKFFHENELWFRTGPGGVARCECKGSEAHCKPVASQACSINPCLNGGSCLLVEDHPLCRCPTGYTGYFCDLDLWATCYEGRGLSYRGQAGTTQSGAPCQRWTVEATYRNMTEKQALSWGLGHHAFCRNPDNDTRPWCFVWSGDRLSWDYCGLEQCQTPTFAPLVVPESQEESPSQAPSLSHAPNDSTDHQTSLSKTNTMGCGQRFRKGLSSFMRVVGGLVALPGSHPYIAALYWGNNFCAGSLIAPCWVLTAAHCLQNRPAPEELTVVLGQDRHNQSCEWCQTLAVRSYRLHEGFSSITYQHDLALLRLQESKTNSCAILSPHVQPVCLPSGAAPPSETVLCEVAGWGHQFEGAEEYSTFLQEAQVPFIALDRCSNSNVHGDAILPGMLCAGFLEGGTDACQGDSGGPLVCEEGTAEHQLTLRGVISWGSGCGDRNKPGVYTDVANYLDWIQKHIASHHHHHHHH
Protocol: (§1) Proteins were then transferred electrophoretically onto nitrocellulose filters and blocked for 1 hour in 5% Milk powder in Tris-buffered saline with 0.05% Tween-20 (TTBS). Filters were then incubated for 1 hour with either 3F7 mAb or an anti-His mAb 3H3 (both at […] in TTBS with 5% Milk powder), washed thoroughly with TTBS, then incubated for a further hour with anti-human IgG-FITC or anti-mouse IgG-FITC, respectively (Millipore, USA; both at 0.25 mg/ml in TTBS with 5% Milk powder). Following further washing of membranes in TTBS, Ab-FITC bound proteins were visualized using a Typhoon variable mode analyzer (GE Healthcare, USA).

[2] = biological target: T2, N376D
T2 construct: also called Mu-FXII N376D mutant with C-terminal 8xHis-tag; mutant a)
T2 single chain: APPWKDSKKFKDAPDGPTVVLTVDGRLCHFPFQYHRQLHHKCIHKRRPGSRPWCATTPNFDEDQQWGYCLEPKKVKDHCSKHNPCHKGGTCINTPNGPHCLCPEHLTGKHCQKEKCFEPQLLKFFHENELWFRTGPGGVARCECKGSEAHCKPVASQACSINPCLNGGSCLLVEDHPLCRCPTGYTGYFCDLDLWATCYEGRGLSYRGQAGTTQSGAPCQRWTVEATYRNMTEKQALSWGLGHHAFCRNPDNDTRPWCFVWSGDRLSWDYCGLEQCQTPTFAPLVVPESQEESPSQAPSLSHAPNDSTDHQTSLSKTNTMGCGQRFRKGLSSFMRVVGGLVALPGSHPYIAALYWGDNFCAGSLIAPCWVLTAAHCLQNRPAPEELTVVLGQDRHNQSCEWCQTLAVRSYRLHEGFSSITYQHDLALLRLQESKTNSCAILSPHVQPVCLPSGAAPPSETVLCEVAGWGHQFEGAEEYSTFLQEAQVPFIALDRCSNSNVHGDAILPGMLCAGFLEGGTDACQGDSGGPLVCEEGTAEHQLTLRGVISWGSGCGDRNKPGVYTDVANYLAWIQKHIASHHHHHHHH
Protocol: as §1

[3] = biological target: T3, A385D
T3 construct: also called Mu-FXII A385D mutant with C-terminal 8xHis-tag; mutant b)
T3 single chain: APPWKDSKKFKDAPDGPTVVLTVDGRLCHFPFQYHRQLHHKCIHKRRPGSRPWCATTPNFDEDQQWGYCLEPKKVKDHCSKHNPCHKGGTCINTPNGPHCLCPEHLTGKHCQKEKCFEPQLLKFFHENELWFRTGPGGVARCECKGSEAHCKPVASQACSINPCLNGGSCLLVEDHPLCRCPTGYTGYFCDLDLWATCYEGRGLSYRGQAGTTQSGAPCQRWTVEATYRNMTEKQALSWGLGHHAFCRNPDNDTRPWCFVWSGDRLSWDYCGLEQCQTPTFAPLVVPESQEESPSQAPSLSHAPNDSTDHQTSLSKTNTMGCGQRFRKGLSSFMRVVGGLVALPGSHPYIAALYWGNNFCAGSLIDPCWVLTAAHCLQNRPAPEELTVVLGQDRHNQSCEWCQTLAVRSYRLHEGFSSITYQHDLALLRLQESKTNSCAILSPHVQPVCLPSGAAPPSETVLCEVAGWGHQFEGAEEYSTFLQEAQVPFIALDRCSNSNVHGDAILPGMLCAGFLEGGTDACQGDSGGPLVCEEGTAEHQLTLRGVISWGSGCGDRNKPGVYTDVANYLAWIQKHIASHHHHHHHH
Protocol: as §1

[4] = biological target: T4, R427H
T4 construct: also called Mu-FXII R427H mutant with C-terminal 8xHis-tag; mutant e)
T4 single chain: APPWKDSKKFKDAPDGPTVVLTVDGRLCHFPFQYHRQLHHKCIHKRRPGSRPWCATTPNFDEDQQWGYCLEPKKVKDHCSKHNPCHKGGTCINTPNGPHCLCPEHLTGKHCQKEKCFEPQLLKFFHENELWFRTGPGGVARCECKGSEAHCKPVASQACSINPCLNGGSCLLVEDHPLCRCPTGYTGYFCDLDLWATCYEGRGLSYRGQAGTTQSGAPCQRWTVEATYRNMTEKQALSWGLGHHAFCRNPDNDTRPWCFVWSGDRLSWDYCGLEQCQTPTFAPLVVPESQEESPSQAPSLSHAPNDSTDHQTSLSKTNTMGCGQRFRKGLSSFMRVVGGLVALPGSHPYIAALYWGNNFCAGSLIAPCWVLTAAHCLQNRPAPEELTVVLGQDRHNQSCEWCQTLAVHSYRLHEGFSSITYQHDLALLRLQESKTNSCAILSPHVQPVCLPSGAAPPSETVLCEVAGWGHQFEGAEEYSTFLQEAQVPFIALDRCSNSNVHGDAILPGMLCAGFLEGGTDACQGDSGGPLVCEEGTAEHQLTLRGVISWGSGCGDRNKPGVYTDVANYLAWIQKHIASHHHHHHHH
Protocol: as §1

Measured: binding result

B1: monoclonal antibody 3F7 (fully human IgG4/lambda) (antibody, V domains shown)
VH: EVQLLESGGGLVQPGGSLRLSCAASGFTFSKYIMQWVRQAPGKGLEWVSGIRPSGGTTVYADSVKGRFTISRDNSKNTLYLQMNSLRAEDTAVYYCARALPRSGYLISPHYYYYALDVWGQGTTVTVSS
VL: QSELTQPPSASGTPGQRVTISCSGSSSNIGRNYVYWYQQVPGTAPKLLIYSNNQRPSGVPDRFSGSKSGTSASLVISGLRSEDEADYYCAAWDASLRGVFGGGTKLTVLG
notes: also called 3F7 mAb; MAb 3F7
binds: [1] | [2] | [3] | [4]
